{"source": "paper PMC10144703", "about": "“Molecular Mechanism of Sirtuin 1 Inhibition by Human Immunodeficiency Virus 1 Tat Protein” (Life, 2023)", "molecules": {"B1": {"name": "Tat-Cys^−: Recombinant 86-residue HIV1 Zaire 2 Tat with C22S, C25A, C27A, C30S, C31A, C34S, and C37A (protein)", "chain": "MDPVDPNIEPWNHPGSQPKTASNRAHAKKSAYHSQVAFITKGLGISYGRKKRRQRRRPSQGGQTHQDPIPKQPSSQPRGDPTGPKE"}}, "key": {"mini-Sirt1": {"molecular_target": "T1, mini-Sirt1 (Homo sapiens, UniProt Q96EB6)", "T1 construct": "aa 183-505-(GGGS)2-641-665; made in house; host or cells: E. coli CodonPlus(DE3)", "T1 sequence (Q96EB6 with tags, fused parts or gaps limits assumed)": "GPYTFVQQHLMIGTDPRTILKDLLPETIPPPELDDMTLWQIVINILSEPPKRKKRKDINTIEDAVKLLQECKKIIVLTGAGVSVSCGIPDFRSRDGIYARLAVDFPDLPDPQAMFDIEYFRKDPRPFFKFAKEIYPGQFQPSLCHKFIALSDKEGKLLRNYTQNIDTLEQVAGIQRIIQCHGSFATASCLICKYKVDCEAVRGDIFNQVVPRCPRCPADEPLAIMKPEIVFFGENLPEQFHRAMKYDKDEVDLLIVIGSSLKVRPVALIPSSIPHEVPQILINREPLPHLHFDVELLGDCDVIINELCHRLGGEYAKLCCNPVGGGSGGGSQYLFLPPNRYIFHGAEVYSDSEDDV", "experiment": "2D-(1H, 15N)-HSQC NMR titration of Tat-Cys^− with mini-Sirt1", "type": "binding", "conditions": "58 µM Tat-Cys^−, 2-fold molar excess mini-Sirt1, pH 6.4, 298 K", "method": "NMR titration experiments were performed by stepwise addition of unlabeled mini-Sirt1 (stock concentration 260 µM) to 100 µM ^15N-labeled Tat-Cys^− in 150 mM sodium chloride, and 10 mM potassium phosphate (pH 6.4). Spectra for 2D-(^1H, ^15N)-HSQC NMR were recorded at 298 K on a Bruker 700 MHz spectrometer equipped with a cryogenically-cooled probe."}, "[1]": {"system": "mini-Sirt1-∆ESA (aa 183–505)", "experiment": "Inhibition of mini-Sirt1-∆ESA (ac-p53 substrate)", "type": "biochemical, human", "conditions": "dose-dependent, 100 µM ac-p53, n = 3; relative to mini-Sirt1", "source_text": "(§1) A human mini-Sirt1 construct (aa 183-505-(GGGS)2-641-665), as described in [27], was generated in a modified pET-19b with a TEV cleavage site. This construct and human full-length Sirt1 (fl-Sirt1) in pET-15b, Sirt1-(183-664) and Sirt1-(214-664) in pET-15b, mini-Sirt1-∆SBD (aa 214-505-(GGGS)2-641-665) and mini-Sirt1-∆ESA (aa 183–505) in a modified pET-19b with TEV cleavage site, Sirt2-(43-356) in a modified pET-19b with a His6-Sumo tag, Sirt3-(93-399) in a modified pET-32a with Trx-His6 tag and TEV cleavage site, hSirt3-(118-399) in pVFT3S (Sungkyunkwan University, Seoul, Republic of Korea) with His6-Trx tag and TEV cleavage site, Sirt5-(34-302) in pET-151/D-TOPO, and Sirt6-(1-355) in pQE80L.1 were purified as described. […]\n(§2) Continuous coupled enzymatic sirtuin activity assays were conducted as described. […] Reactions were monitored for 1 h at room temperature by absorption spectroscopy at 340 nm in a UV/vis plate reader (BioTek). The slope for the linear range (typically 5–25 min) was evaluated after background correction with measurements without NAD^+. Additional control reactions were run by either omitting enzyme or omitting peptide substrate to ensure that the signal measured reflects the NAD+-dependent deacetylation activity of the sirtuin."}, "[2]": {"system": "mini-Sirt1-∆SBD (aa 214-505-(GGGS)2-641-665)", "experiment": "Inhibition of mini-Sirt1-∆SBD (ac-p53 substrate)", "type": "biochemical, human", "conditions": "dose-dependent, 100 µM ac-p53, n = 3; relative to mini-Sirt1", "source_text": "as §1, §2"}, "Sirt3-(93-399)": {"molecular_target": "T2, Sirt3-(93-399) (Homo sapiens, UniProt Q9NTG7)", "T2 construct": "Sirt3-(93-399) in a modified pET-32a; Trx-His6 (cleaved yes); made in house; host or cells: E. coli CodonPlus(DE3)", "T2 sequence (Q9NTG7 93-399)": "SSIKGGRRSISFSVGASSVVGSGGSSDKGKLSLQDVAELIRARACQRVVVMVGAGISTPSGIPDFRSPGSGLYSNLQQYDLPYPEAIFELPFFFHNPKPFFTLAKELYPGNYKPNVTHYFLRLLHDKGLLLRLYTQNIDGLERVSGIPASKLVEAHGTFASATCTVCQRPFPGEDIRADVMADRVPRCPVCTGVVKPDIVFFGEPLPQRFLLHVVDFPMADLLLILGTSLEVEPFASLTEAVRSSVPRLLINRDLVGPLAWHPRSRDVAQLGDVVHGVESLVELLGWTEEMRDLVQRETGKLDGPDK", "experiment": "FdL assay, Sirt3", "type": "biochemical", "conditions": "increasing Tat-Cys^−, n = 3-6", "source_text": "A human mini-Sirt1 construct (aa 183-505-(GGGS)2-641-665), as described in [27], was generated in a modified pET-19b with a TEV cleavage site. This construct and human full-length Sirt1 (fl-Sirt1) in pET-15b, Sirt1-(183-664) and Sirt1-(214-664) in pET-15b, mini-Sirt1-∆SBD (aa 214-505-(GGGS)2-641-665) and mini-Sirt1-∆ESA (aa 183–505) in a modified pET-19b with TEV cleavage site, Sirt2-(43-356) in a modified pET-19b with a His6-Sumo tag, Sirt3-(93-399) in a modified pET-32a with Trx-His6 tag and TEV cleavage site, hSirt3-(118-399) in pVFT3S (Sungkyunkwan University, Seoul, Republic of Korea) with His6-Trx tag and TEV cleavage site, Sirt5-(34-302) in pET-151/D-TOPO, and Sirt6-(1-355) in pQE80L.1 were purified as described. Shortly, proteins were expressed at 20 °C (mini-Sirt1 constructs at 16 °C) in E. coli CodonPlus(DE3), cell lysates were cleared by centrifugation, and proteins were purified via affinity chromatography using a nickel NTA column. After digestion with thrombin or TEV protease, proteins were re-run over the nickel NTA column, pooled, and concentrated. The samples were, then, subjected either directly to size exclusion chromatography in 50 mM Tris/HCl, pH 8.0, 150 mM NaCl, 1 mM TCEP, or to an ion exchange chromatography followed by size exclusion chromatography. […]"}}}
{"molecule": "B1", "values": [{"measurement": "HSQC signal changes on mini-Sirt1 addition", "setting": "mini-Sirt1", "result": "a large number of HSQC signals to disappear"}, {"measurement": "HSQC signals unchanged on mini-Sirt1 addition", "setting": "mini-Sirt1", "result": "mostly to Tat residues 63–87"}, {"measurement": "inhibitory effects, mini-Sirt1-∆ESA", "setting": "[1]", "result": "unchanged inhibitory effects"}, {"measurement": "inhibitory effects, mini-Sirt1-∆SBD", "setting": "[2]", "result": "unchanged inhibitory effects"}, {"measurement": "inhibition mode vs acetylated substrate peptide, Sirt3", "setting": "Sirt3-(93-399); FdL-1, Sirt3-(93-399)", "result": "competitive with the acetylated substrate peptide"}, {"measurement": "inhibition mode vs NAD^+, Sirt3", "setting": "Sirt3-(93-399); NAD^+ titration, Sirt3-(93-399)", "result": "non-competitive with NAD^+"}]}
